According to PMC4075976 (Nature structural & molecular biology, 2008):
Each block holds one binder with its values, some of them ahead of it. Where no end group is shown, it is not given here.

Key:
[1] = molecular target: UBE2D2/UbcH5b (UniProt P62837 1-147); assay: NMR titration
[2] = molecular target: full length 6xHis tagged p53 (human, UniProt P04637 1-393); assay: pull-down
full length 6xHis tagged p53, sequence (P04637 whole entry): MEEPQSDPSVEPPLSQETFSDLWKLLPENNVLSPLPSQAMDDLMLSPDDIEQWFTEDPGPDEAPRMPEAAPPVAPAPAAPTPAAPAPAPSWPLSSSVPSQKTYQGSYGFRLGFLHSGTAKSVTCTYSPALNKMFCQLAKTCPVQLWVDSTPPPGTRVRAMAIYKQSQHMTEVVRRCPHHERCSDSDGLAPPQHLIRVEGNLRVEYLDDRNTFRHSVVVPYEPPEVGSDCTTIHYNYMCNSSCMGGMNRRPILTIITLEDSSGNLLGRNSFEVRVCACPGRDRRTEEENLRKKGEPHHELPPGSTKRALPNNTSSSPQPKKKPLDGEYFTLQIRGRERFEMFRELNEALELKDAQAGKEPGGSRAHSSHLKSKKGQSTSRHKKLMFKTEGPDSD

Kd [1]: ~200 µM
B1: Pirh2 RING domain (GST removed) (domain or fragment)
chain: ENVSRQNCPICLEDIHTSRVVAHVLPCGHLLHRTCYEEMLKEGYRCPLCMHS
modifications: cysteine pairing not given here; also: 2 Zn ions bound

binding result [2]: binds
B2: GST-Pirh2 NTD (domain or fragment, human, UniProt Q96PM5 1-137, looked up)
chain: MAATAREDGASGQERGQRGCEHYDRGCLLKAPCCDKLYTCRLCHDNNEDHQLDRFKVKEVQCINCEKIQHAQQTCEECSTLFGEYYCDICHLFDKDKKQYHCENCGICRIGPKEDFFHCLKCNLCLAMNLQGRHKCI
